US20080234193A1 (published 2008)
Several values for one entry are separate records, joined by “and”; a condition that tells them apart may be missing. Equal entries are not always repeated.

B1: FVIII control (mock preparation, not PEGylated) (other)
chain: ATRRYYLGAVELSWDYMQSDLGELPVDARFPPRVPKSFPFNTSVVYKKTLFVEFTDHLFNIAKPRPPWMGLLGPTIQAEVYDTVVITLKNMASHPVSLHAVGVSYWKASEGAEYDDQTSQREKEDDKVFPGGSHTYVWQVLKENGPMASDPLCLTYSYLSHVDLVKDLNSGLIGALLVCREGSLAKEKTQTLHKFILLFAVFDEGKSWHSETKNSLMQDRDAASARAWPKMHTVNGYVNRSLPGLIGCHRKSVYWHVIGMGTTPEVHSIFLEGHTFLVRNHRQASLEISPITFLTAQTLLMDLGQFLLFCHISSHQHDGMEAYVKVDSCPEEPQLRMKNNEEAEDYDDDLTDSEMDVVRFDDDNSPSFIQIRSVAKKHPKTWVHYIAAEEEDWDYAPLVLAPDDRSYKSQYLNNGPQRIGRKYKKVRFMAYTDETFKTREAIQHESGILGPLLYGEVGDTLLIIFKNQASRPYNIYPHGITDVRPLYSRRLPKGVKHLKDFPILPGEIFKYKWTVTVEDGPTKSDPRCLTRYYSSFVNMERDLASGLIGPLLICYKESVDQRGNQIMSDKRNVILFSVFDENRSWYLTENIQRFLPNPAGVQLEDPEFQASNIMHSINGYVFDSLQLSVCLHEVAYWYILSIGAQTDFLSVFFSGYTFKHKMVYEDTLTLFPFSGETVFMSMENPGLWILGCHNSDFRNRGMTALLKVSSCDKNTGDYYEDSYEDISAYLLSKNNAIEPRSFSQNSRHPSQNPPVLKRHQREITRTTLQSDQEEIDYDDTISVEMKKEDFDIYDEDENQSPRSFQKKTRHYFIAAVERLWDYGMSSSPHVLRNRAQSGSVPQFKKVVFQEFTDGSFTQPLYRGELNEHLGLLGPYIRAEVEDNIMVTFRNQASRPYSFYSSLISYEEDQRQGAEPRKNFVKPNETKTYFWKVQHHMAPTKDEFDCKAWAYFSDVDLEKDVHSGLIGPLLVCHTNTLNPAHGRQVTVQEFALFFTIFDETKSWYFTENMERNCRAPCNIQMEDPTFKENYRFHAINGYIMDTLPGLVMAQDQRIRWYLLSMGSNENIHSIHFSGHVFTVRKKEEYKMALYNLYPGVFETVEMLPSKAGIWRVECLIGEHLHAGMSTLFLVYSNKCQTPLGMASGHIRDFQITASGQYGQWAPKLARLHYSGSINAWSTKEPFSWIKVDLLAPMIIHGIKTQGARQKFSSLYISQFIIMYSLDGKKWQTYRGNSTGTLMVFFGNVDSSGIKHNIFNPPIIARYIRLHPTHYSIRSTLRMELMGCDLNSCSMPLGMESKAISDAQITASSYFTNMFATWSPSKARLHLQGRSNAWRPQVNNPKEWLQVDFQKTMKVTGVTTQGVKSLLTSMYVKEFLISSSQDGHQWTLFFQNGKVKVFQGNQDSFTPVVNSLDPPLLTRYLRIHPQSWVHQIALRMEVLGCEAQDLY
B2: ADAMTS13 (VWF cleaving protease) (protein)
chain: AAGGILHLELLVAVGPDVFQAHQEDTERYVLTNLNIGAELLRDPSLGAQFRVHLVKMVILTEPEGAPNITANLTSSLLSVCGWSQTINPEDDTDPGHADLVLYITRFDLELPDGNRQVRGVTQLGGACSPTWSCLITEDTGFDLGVTIAHEIGHSFGLEHDGAPGSGCGPSGHVMASDGAAPRAGLAWSPCSRRQLLSLLSAGRARCVWDPPRPQPGSAGHPPDAQPGLYYSANEQCRVAFGPKAVACTFAREHLDMCQALSCHTDPLDQSSCSRLLVPLLDGTECGVEKWCSKGRCRSLVELTPIAAVHGRWSSWGPRSPCSRSCGGGVVTRRRQCNNPRPAFGGRACVGADLQAEMCNTQACEKTQLEFMSQQCARTDGQPLRSSPGGASFYHWGAAVPHSQGDALCRHMCRAIGESFIMKRGDSFLDGTRCMPSGPREDGTLSLCVSGSCRTFGCDGRMDSQQVWDRCQVCGGDNSTCSPRKGSFTAGRAREYVTFLTVTPNLTSVYIANHRPLFTHLAVRIGGRYVVAGKMSISPNTTYPSLLEDGRVEYRVALTEDRLPRLEEIRIWGPLQEDADIQVYRRYGEEYGNLTRPDITFTYFQPKPRQAWVWAAVRGPCSVSCGAGLRWVNYSCLDQARKELVETVQCQGSQQPPAWPEACVLEPCPPYWAVGDFGPCSASCGGGLRERPVRCVEAQGSLLKTLPPARCRAGAQQPAVALETCNPQPCPARWEVSEPSSCTSAGGAGLALENETCVPGADGLEAPVTEGPGSVDEKLPAPEPCVGMSCPPGWGHLDATSAGEKAPSPWGSIRTGAQAAHVWTPAAGSCSVSCGRGLMELRFLCMDSALRVPVQEELCGLASKPGSRREVCQAVPCPARWQYKLAACSVSCGRGVVRRILYCARAHGEDDGEEILLDTQCQGLPRPEPQEACSLEPCPPRWKVMSLGPCSASCGLGTARRSVACVQLDQGQDVEVDEAACAALVRPEASVPCLIADCTYRWHVGTWMECSVSCGDGIQRRRDTCLGPQAQAPVPADFCQHLPKPVTVRGCWAGPCVGQGTPSLVPHEEAAAPGRTTATPAGASLEWSQARGLLFSPAPQPRRLLPGPQENSVQSSACGRQHLEPTGTIDMRGPGQADCAVAIGRPLGEVVTLRVLESSLNCSAGDMLLLWGRLTWRKMCRKLLDMTFSSKTNTLVVRQRCGRPGGGVLLRYGSQLAPETFYRECDMQLFGPWGEIVSPSLSPATSNAGGCRLFINVAPHARIAIHALATNMGAGTEGANASYILIRDTHSLRTTAFHGQQVLYWESESSQAEMEFSEGFLKAQASLRGQYWTLQSWVPEMQDPQSWKGKEGT

Columns and labels:
[1] = molecular target: native rVWF 133P1 (human) (UniProt P04275); assay: SPR (Biacore 3000): native rVWF 133P1 immobilized on CM5 chip, FVIII sample in flow, 1:1 Langmuir model
[2] = molecular target: activated factor IX (FIXa); assay: cell-based or functional assay
[3] = molecular target: native rFVIII MOQ HEPES 01-E (Advate rAHF-PFM bulk drug substance) (UniProt P00451); assay: ECA after in vitro incubation in Hepes buffer pH ~7.5 at ambient temperature, day 2
[4] = molecular target: native rFVIII MOQ HEPES 01-E (Advate rAHF-PFM bulk drug substance) (UniProt P00451); assay: ELISA chromogenic assay (ECA): VWF-rFVIII complex captured on anti-VWF antibody, bound FVIII by chromogenic assay
[5] = molecular target: native rFVIII MOQ HEPES 01-E (Advate rAHF-PFM bulk drug substance) (UniProt P00451); assay: ELISA chromogenic assay (ECA): VWF-rFVIII complex captured on anti-VWF antibody, bound FVIII by chromogenic assay; percent of VWF:Ag
[6] = molecular target: native rFVIII MOQ HEPES 01-E (Advate rAHF-PFM bulk drug substance) (UniProt P00451); assay: ECA after in vitro incubation in Hepes buffer pH ~7.5 at ambient temperature, day 5
[7] = molecular target: native rFVIII MOQ HEPES 01-E (Advate rAHF-PFM bulk drug substance) (UniProt P00451); assay: ECA, value related to the rVWF protein
[8] = molecular target: native rFVIII MOQ HEPES 01-E (Advate rAHF-PFM bulk drug substance) (UniProt P00451); assay: SPR (Biacore 3000): rVWF sample immobilized on CM5 chip, rFVIII in flow, 1:1 Langmuir model; mean of 133P1-1 and 133P1-2
[9] = molecular target: native rFVIII MOQ HEPES 01-E (Advate rAHF-PFM bulk drug substance) (UniProt P00451); assay: ECA after in vitro incubation in Hepes buffer pH ~7.5 at ambient temperature, day 8
[10] = molecular target: native rFVIII MOQ HEPES 01-E (Advate rAHF-PFM bulk drug substance) (UniProt P00451); assay: ELISA chromogenic assay (ECA): VWF-rFVIII complex captured on anti-VWF antibody, bound FVIII by chromogenic assay; remark: listed apart in the source
[11] = molecular target: native rFVIII MOQ HEPES 01-E (Advate rAHF-PFM bulk drug substance) (UniProt P00451); assay: ELISA chromogenic assay (ECA); mean of 133P1-1 to 133P1-3
[12] = molecular target: native rFVIII MOQ HEPES 01-E (Advate rAHF-PFM bulk drug substance) (UniProt P00451); assay: ECA after in vitro incubation in Hepes buffer pH ~7.5 at ambient temperature, day 0
[13] = molecular target: native rFVIII MOQ HEPES 01-E (Advate rAHF-PFM bulk drug substance) (UniProt P00451); assay: SPR (Biacore 3000): rVWF sample immobilized on CM5 chip, rFVIII in flow, 1:1 Langmuir model
[14] = molecular target: native rFVIII MOQ HEPES 01-E (Advate rAHF-PFM bulk drug substance) (UniProt P00451); assay: SPR competition (Biacore): VWF-rFVIII complex (5 IU/ml rFVIII) in flow over immobilized unmodified rVWF (competitor)
[15] = molecular target: native rFVIII MOQ HEPES 01-E (Advate rAHF-PFM bulk drug substance) (UniProt P00451); assay: SPR (Biacore 3000): rVWF sample immobilized on CM5 chip, rFVIII in flow, 1:1 Langmuir model; remark: listed apart in the source
[16] = molecular target: native rFVIII MOQ HEPES 01-E (Advate rAHF-PFM bulk drug substance) (UniProt P00451); assay: ECA, value as percent of VWF:Ag
native rVWF 133P1 = molecular target: T1, native rVWF 133P1 (human, UniProt P04275 764-2813); assay: SPR (Biacore 3000): native rVWF 133P1 immobilized on CM5 chip, FVIII sample in flow, 1:1 Langmuir model
T1 construct: mature; Starting material for PEGylation; multimers of the mature monomer (about 260 kDa on reducing SDS-PAGE); also called unmodified rVWF

[17] = molecular target: PEG-rVWF Lys 20K br long low, P04275
[18] = molecular target: native rVWF 133P1, P04275
[19] = molecular target: PEG-rVWF Lys 20K br short low, P04275
[20] = molecular target: PEG-rVWF Lys 40K br long low, P04275
[21] = molecular target: PEG-rVWF Lys 40K br short low, P04275

| Molecule | lag phase (min), FIXa-cofactor activity after thrombin activation [2] [min] | lag phase (min), FIXa-cofactor activity without thrombin activation [2] [min] | maximum FXa (nM), FIXa-cofactor activity after thrombin activation [2] [nM] | maximum FXa (nM), FIXa-cofactor activity without thrombin activation [2] [nM] | maximum rate (nM FXa/min), FIXa-cofactor activity after thrombin activation [2] [nM FXa/min] | maximum rate (nM FXa/min), FIXa-cofactor activity without thrombin activation [2] [nM FXa/min] | t1/2 of maximum (min), FIXa-cofactor activity after thrombin activation [2] [min] | t1/2 of maximum (min), FIXa-cofactor activity without thrombin activation [2] [min] | VWF:FVIIIB (U/ml) [4] | VWF:FVIIIB (U/mg) [7] [U/mg] | also measured |
| --- | --- | --- | --- | --- | --- | --- | --- | --- | --- | --- | --- |
| native rFVIII MOQ HEPES 01-E (Advate rAHF-PFM bulk drug substance) (from UniProt P00451 20-2351) | 1.15 | 2.4 | 25.1 | 30.1 | 4.24 | 6.7 | 4.24 | 4.6 |  |  | Kd [1]: 1.5 nM |
| native rVWF 133P1 (from UniProt P04275 764-2813) |  |  |  |  |  |  |  |  | 47.9 U/ml and 37.9 U/ml and 37.8 U/ml | 134 | VWF:FVIIIB specific activity (U/mg protein) [3]: 66 U/mg protein; VWF:FVIIIB capacity (%) [5]: 84%; VWF:FVIIIB specific activity (U/mg protein) [6]: 93 U/mg protein; Kd [8]: 0.39 nM; VWF:FVIIIB specific activity (U/mg protein) [9]: 84 U/mg protein; VWF:FVIIIB (U/ml) [10]: 46 U/ml; VWF:FVIIIB (U/ml) [11]: 41.2 U/ml; VWF:FVIIIB specific activity (U/mg protein) [12]: 81 U/mg protein; Kd [13]: 0.29 nM and 0.55 nM and 0.48 nM; VWF to FVIII ratio to keep all FVIII in a complex [14]: 1 µg/IU; Kd [15]: 0.549 nM |
| rVWF control (mock preparation, not PEGylated) (from UniProt P04275 764-2813) |  |  |  |  |  |  |  |  | 15.5 U/ml | 95 | VWF:FVIIIB capacity (%) [16]: 84% |
| B1 | 1.13 | 1.8 | 33.7 | 39.6 | 9.79 | 8.8 | 2.85 | 4 |  |  | Kd (native rVWF 133P1): 0.55 nM |
| B2 |  |  |  |  |  |  |  |  |  |  | loss of VWF:CB activity after 4 h incubation with ADAMTS13 under denaturing conditions [17]: The PEGylated conjugates showed a slightly higher susceptibility to ADAMTS13 than their parent native rVWF.; disappearance of higher molecular weight multimers after incubation with ADAMTS13 [18]: All preparations showed similar sensitivity to ADAMTS13.; loss of VWF:CB activity after 4 h incubation with ADAMTS13 under denaturing conditions [19]: The PEGylated conjugates showed a slightly higher susceptibility to ADAMTS13 than their parent native rVWF.; loss of VWF:CB activity after 4 h incubation with ADAMTS13 under denaturing conditions [20]: The PEGylated conjugates showed a slightly higher susceptibility to ADAMTS13 than their parent native rVWF.; loss of VWF:CB activity after 4 h incubation with ADAMTS13 under denaturing conditions [21]: The PEGylated conjugates showed a slightly higher susceptibility to ADAMTS13 than their parent native rVWF. |
